Measurements: patent US20210324028A1 (Pfizer, published 2021)

T1: human IL-2Rβ (human, UniProt P14784 27-240, limits assumed)
T1 construct: also called hIL-2Rβ; IL-2 receptor beta
T1 sequence (looked up): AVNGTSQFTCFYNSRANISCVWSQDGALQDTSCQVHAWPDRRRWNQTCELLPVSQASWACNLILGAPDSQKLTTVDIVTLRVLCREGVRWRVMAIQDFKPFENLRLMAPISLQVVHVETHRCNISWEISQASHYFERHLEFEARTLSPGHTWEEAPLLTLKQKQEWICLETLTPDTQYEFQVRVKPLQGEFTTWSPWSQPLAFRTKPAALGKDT

T2: IL-15 signaling receptor on 32D[pRF770+pRF791] cells (human CD122 plus mouse CD132) (human; mouse, UniProt P14784 27-551; P34902 23-369)
T2 sequence (looked up) 1: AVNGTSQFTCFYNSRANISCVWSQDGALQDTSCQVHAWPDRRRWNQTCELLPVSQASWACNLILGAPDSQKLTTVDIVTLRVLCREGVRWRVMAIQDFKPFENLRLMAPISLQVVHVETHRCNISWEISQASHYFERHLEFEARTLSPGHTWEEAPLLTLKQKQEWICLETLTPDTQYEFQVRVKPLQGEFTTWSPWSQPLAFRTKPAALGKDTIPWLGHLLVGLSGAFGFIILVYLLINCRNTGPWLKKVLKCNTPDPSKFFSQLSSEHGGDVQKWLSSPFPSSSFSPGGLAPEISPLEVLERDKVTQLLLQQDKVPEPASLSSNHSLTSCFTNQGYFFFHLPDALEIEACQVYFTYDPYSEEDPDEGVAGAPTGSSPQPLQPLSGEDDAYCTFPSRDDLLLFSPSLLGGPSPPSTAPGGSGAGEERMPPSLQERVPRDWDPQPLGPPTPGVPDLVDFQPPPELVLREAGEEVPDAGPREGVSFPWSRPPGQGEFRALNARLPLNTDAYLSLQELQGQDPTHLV
T2 sequence (looked up) 2: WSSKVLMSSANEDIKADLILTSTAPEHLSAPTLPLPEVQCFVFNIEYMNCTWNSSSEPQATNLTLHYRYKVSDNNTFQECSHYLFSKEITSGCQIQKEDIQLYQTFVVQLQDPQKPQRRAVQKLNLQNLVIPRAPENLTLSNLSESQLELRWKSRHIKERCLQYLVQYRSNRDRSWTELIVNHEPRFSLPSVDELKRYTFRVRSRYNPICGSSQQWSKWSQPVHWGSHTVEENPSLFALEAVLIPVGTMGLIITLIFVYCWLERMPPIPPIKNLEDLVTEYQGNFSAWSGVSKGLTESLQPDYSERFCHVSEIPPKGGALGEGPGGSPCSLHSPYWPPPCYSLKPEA

T3: mouse PD-1 on doxycycline-induced 32D[pRF770+pRF791] cells (mouse, UniProt Q02242 25-288)
T3 sequence (looked up): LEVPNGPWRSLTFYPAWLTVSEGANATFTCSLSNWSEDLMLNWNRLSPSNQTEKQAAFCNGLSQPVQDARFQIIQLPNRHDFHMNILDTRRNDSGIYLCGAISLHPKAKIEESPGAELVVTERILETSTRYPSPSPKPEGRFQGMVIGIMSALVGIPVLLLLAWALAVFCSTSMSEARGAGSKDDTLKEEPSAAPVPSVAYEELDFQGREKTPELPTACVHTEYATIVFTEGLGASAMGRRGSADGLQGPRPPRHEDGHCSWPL


Experiments:
human IL-2Rβ [1] = target: T1, human IL-2Rβ; test: SPR, steady state, fusion captured
Description: (§1) Anti-human Fc sensor chips were prepared at 25° C. with a running buffer of 10 mM HEPES, 150 mM NaCl, 0.05% (v/v) Tween-20, pH 7.4. All surfaces of a Biacore CM4 sensor chip were activated with a 1:1 (v/v) mixture of 400 mM EDC and 100 mM NHS for 7 minutes, at a flow rate of 10 μL/min. An anti-human Fc reagent (Goat anti-human IgG Fc-γ specific, SouthernBiotech, Birmingham, Ala., Catalog #2014-01) was diluted to 50 μg/mL in 10 mM sodium acetate (pH 4.5) and injected on all flow cells for 7 minutes at 20 μL/min. All flow cells were blocked with 100 mM ethylenediamine in 200 mM Borate buffer pH 8.5 for 7 minutes at 10 μL/min.
(§2) All protein interaction experiments were performed at 37° C. using a running buffer of 10 mM HEPES, 150 mM NaCl, 0.05% (v/v) Tween-20, pH 7.4, 1 mg/mL BSA. Anti-PD-1-hIL-15 fusion proteins were captured at 10 μg/mL at a flow rate of 10 μL/min for 2 minutes. Different fusion proteins were captured in flow cells 2, 3 and 4. No protein was captured onto flow cell 1 which was used as a reference surface. […] After each analyte injection, dissociation was monitored for 5 minutes followed by regeneration of all flow cells with three 60-second injections of 75 mM phosphoric acid. […] For kinetic analysis, the double-referenced sensorgrams were fit globally to a simple 1:1 Langmuir with mass transport binding model using Biacore T200 Evaluation Software version 2.0. For steady-state affinity analysis, the double-referenced equilibrium binding responses were fit with a 1:1 Langmuir steady-state model using Biacore T200 Evaluation Software version 2.0.

human IL-15Rα = target: T4, human IL-15Rα (human, UniProt Q13261 31-205, limits assumed); test: SPR 37C, fusion captured by anti-human Fc
T4 construct: also called hIL-15Rα; IL-15 receptor alpha
T4 sequence (Q13261 31-205 limits assumed): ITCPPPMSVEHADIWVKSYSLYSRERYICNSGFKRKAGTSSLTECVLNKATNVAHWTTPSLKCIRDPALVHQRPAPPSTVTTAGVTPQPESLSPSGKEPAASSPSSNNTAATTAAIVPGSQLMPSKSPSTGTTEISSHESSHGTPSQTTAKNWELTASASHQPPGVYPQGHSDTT
Method in brief: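 Anti-PD-1–hIL-15 fusions captured at 10 μg/mL on an anti-human Fc surface, receptor injected at 37 °C in HEPES-buffered saline with 0.05% Tween-20 and 1 mg/mL BSA, pH 7.4; 5 min dissociation.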

[2] = target: T2, IL-15 signaling receptor on …; test: cell-based or functional assay
[3] = target: T3, mouse PD-1 on doxycycline-induced …; test: cell-based or functional assay
human IL-2Rβ [4] = target: T1, human IL-2Rβ; test: SPR, fusion captured
Description: as §1, §2

Row | Kd (human IL-2Rβ [1]) | binding result (human IL-15Rα) | pSTAT5 EC50 on PD-1(low) 32D reporter cells [2] | Fold change = EC50 (PD-1(low))/EC50 (PD-1+) [3] | pSTAT5 EC50 on PD-1+ 32D reporter cells [3] | Kd (human IL-2Rβ [4]) | Binder
1 | 446 nM | no binding (tested: 3000 nM) | 3.73 nM | 163 fold | 22.9 pM |  | xmPD-1-hIL15 NQ-3d (other, also called xmPD-1-IL15 NQ-3d; xmPD-IL15 NQ3d) heavy 1: HHHHHHHHGGGGSGSGGEVQLVESGGGLVKPGGSLELSCAASGFTFSSYWMSWVRQAPEKGLEWVAAISPSGGSTYYADSVKGRFTISRDNAKNTLFLQMTSLRSEDTAMYYCAKESWGAYYDLWGQGTTVTVSSASTKGPSVFPLAPCSRSTSESTAALGCLVKDYFPEPVTVSWNSGALTSGVHTFPAVLQSSGLYSLSSVVTVPSSNFGTQTYTCNVDHKPSNTKVDKTVERKCRVRCPRCPAPPVAGPSVFLFPPKPKDTLMISRTPEVTCVVVAVSHEDPEVQFNWYVDGVEVHNAKTKPREEQFNSTFRVVSVLTVVHQDWLNGKEYKCKVSNKGLPSSIEKTISKTKGQPREPQVYTLPPSREEMTKNQVSLTCLVKGFYPSDIAVEWESNGQPENNYKTTPPMLDSDGSFFLYSRLTVDKSRWQQGNVFSCSVMHEALHNHYTQKSLSLSPGK heavy 2: EVQLVESGGGLVKPGGSLELSCAASGFTFSSYWMSWVRQAPEKGLEWVAAISPSGGSTYYADSVKGRFTISRDNAKNTLFLQMTSLRSEDTAMYYCAKESWGAYYDLWGQGTTVTVSSASTKGPSVFPLAPCSRSTSESTAALGCLVKDYFPEPVTVSWNSGALTSGVHTFPAVLQSSGLYSLSSVVTVPSSNFGTQTYTCNVDHKPSNTKVDKTVERKCEVECPECPAPPVAGPSVFLFPPKPKDTLMISRTPEVTCVVVAVSHEDPEVQFNWYVDGVEVHNAKTKPREEQFNSTFRVVSVLTVVHQDWLNGKEYKCKVSNKGLPSSIEKTISKTKGQPREPQVYTLPPSREEMTKNQVSLTCEVKGFYPSDIAVEWESNGQPENNYKTTPPMLDSDGSFFLYSKLTVDKSRWQQGNVFSCSVMHEALHNHYTQKSLSLSPGSGGGGGTSATATPGANWVNVISDLKKIEDLIQSMHIDATLYTESDVHPSCKVTAMKCFLLQLQVISLQSGDASIHDTVENLIILANNSLSSNGNVTESGCKECEELEQKNIKEFLQSFVHIVQMFINT light: DIVMTQSPSSLSVSAGDKVTMSCRASQGISSWLAWYQQKPWQPPKLLIYKASTLESGVPDRFTGSGSGTDFTLTISSVQAEDLAVYYCQQSYSTPWTFGGGTKLEIKGTVAAPSVFIFPPSDEQLKSGTASVVCLLNNFYPREAKVQWKVDNALQSGNSQESVTEQDSKDSTYSLSSTLTLSKADYEKHKVYACEVTHQGLSSPVTKSFNRGEC
2 |  | no binding (tested: 3000 nM) | 98 nM | 715 fold | 0.137 nM | > 3000 nM | xmPD-1-hIL15 V49R/E46G/E64Q/D30N (other, not restated for this mutant; also called xmPD-IL15 V49R/E46G/E64Q/D30N) heavy 1: HHHHHHHHGGGGSGSGGEVQLVESGGGLVKPGGSLELSCAASGFTFSSYWMSWVRQAPEKGLEWVAAISPSGGSTYYADSVKGRFTISRDNAKNTLFLQMTSLRSEDTAMYYCAKESWGAYYDLWGQGTTVTVSSASTKGPSVFPLAPCSRSTSESTAALGCLVKDYFPEPVTVSWNSGALTSGVHTFPAVLQSSGLYSLSSVVTVPSSNFGTQTYTCNVDHKPSNTKVDKTVERKCRVRCPRCPAPPVAGPSVFLFPPKPKDTLMISRTPEVTCVVVAVSHEDPEVQFNWYVDGVEVHNAKTKPREEQFNSTFRVVSVLTVVHQDWLNGKEYKCKVSNKGLPSSIEKTISKTKGQPREPQVYTLPPSREEMTKNQVSLTCLVKGFYPSDIAVEWESNGQPENNYKTTPPMLDSDGSFFLYSRLTVDKSRWQQGNVFSCSVMHEALHNHYTQKSLSLSPGK heavy 2: EVQLVESGGGLVKPGGSLELSCAASGFTFSSYWMSWVRQAPEKGLEWVAAISPSGGSTYYADSVKGRFTISRDNAKNTLFLQMTSLRSEDTAMYYCAKESWGAYYDLWGQGTTVTVSSASTKGPSVFPLAPCSRSTSESTAALGCLVKDYFPEPVTVSWNSGALTSGVHTFPAVLQSSGLYSLSSVVTVPSSNFGTQTYTCNVDHKPSNTKVDKTVERKCEVECPECPAPPVAGPSVFLFPPKPKDTLMISRTPEVTCVVVAVSHEDPEVQFNWYVDGVEVHNAKTKPREEQFNSTFRVVSVLTVVHQDWLNGKEYKCKVSNKGLPSSIEKTISKTKGQPREPQVYTLPPSREEMTKNQVSLTCEVKGFYPSDIAVEWESNGQPENNYKTTPPMLDSDGSFFLYSKLTVDKSRWQQGNVFSCSVMHEALHNHYTQKSLSLSPGSGGGGGTSATATPGANWVNVISDLKKIEDLIQSMHIDATLYTESNVHPSCKVTAMKCFLLGLQRISLESGDASIHDTVQNLIILANNSLSSNGNVTESGCKECEELEEKNIKEFLQSFVHIVQMFINT light: DIVMTQSPSSLSVSAGDKVTMSCRASQGISSWLAWYQQKPWQPPKLLIYKASTLESGVPDRFTGSGSGTDFTLTISSVQAEDLAVYYCQQSYSTPWTFGGGTKLEIKGTVAAPSVFIFPPSDEQLKSGTASVVCLLNNFYPREAKVQWKVDNALQSGNSQESVTEQDSKDSTYSLSSTLTLSKADYEKHKVYACEVTHQGLSSPVTKSFNRGEC
